The values below come from paper PMC6269214 (Biochimica et biophysica acta. Proteins and proteomics, 2018).

Series [1] deals with the molecule itself. The series can be described thus: SEC-MALS. For orientation: In gel filtration, larger molecules generally elute earlier.
Series [2] deals with the molecule itself. The series is described as follows: SEC.

B1: cavsol (full-length, soluble human caveolin-1 variant gen-2d) (other)
chain: MSGGKYVDSEGHLYTVPIREQGNIYKPNNKAMADELSEKQVYDAHTKEIDLVNRDPKHLNDDVVKIDFEDVIAEPEGTHSFDGIWKASFTTFTVTKYWFYRLLSAHEGIPMALSRGVEVAQVSDHHIRADDPCIKSFLIEIQCISRVYSIYVHTVCDPLFEAVGKIFSNVRINLQKEI
By stoichiometry N is commonly meant a count of units in the complex or per binding partner. As for B1, the “stoichiometry N” value in series [1] is roughly 90 cav monomers; in series [2] it was 24 monomers.
